Measurements published in patent US20210261676A1 (YINNUOLAI BIOTECH, published 2021).

Biological target: T1, B-cell activating factor (BAFF) receptor (human, UniProt Q96RJ3 7-71, limits assumed)
T1 construct: also called TNFRSF13C; BLyS receptor 3
T1 sequence: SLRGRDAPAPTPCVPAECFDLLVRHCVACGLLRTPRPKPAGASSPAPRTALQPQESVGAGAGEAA
Experiment: method not stated; column heads (Kdis, Full X^2, Full R^2) look like bio-layer interferometry output

B1: H90-5 anti-BAFF receptor monoclonal antibody (antibody, V domains shown)
VH: EVQLQESGPGLVKPSQTLSLTCTVSGDSITSGYWNWIRQHPGKGLEYIGYISYSGSTYYNPSLKSRVTISRDTSKNQYSLKLSSVTAADTAVYYCASPNYPFYAMDYWGQGTLVTVSS
VL: DIVLTQSPATLSLSPGERATLSCRASESVDNYGISFMNWFQQKPGQAPRLLIYAASNRATGIPARFSGSGSGTDFTLTISSLEPEDFAVYYCQQSKEVPWTFGGGTKVEIKR
notes: Humanized form of C90; also called H90-5 mAb
B1 was tested, and the Kd was 3.4 nM, the koff was 0.0034 s⁻¹ and the kon was 990000 M⁻¹ s⁻¹.

B2: H90-11 anti-BAFF receptor monoclonal antibody (antibody, V domains shown)
VH: B1 VH
VL: DIQMTQSPDSLAVSLGERATINCKSSQSVLYSSNNKNYLAWYQQKPGQPPKLLIYWASIRESGVPDRFSGSGSGTDFTLTISSLQPEDFATYYCQQSYSTPWTFGQGTKLEIKR
notes: same heavy chain variable region as H90-5; also called H90-11 mAb
Work on B2 yielded a Kd of 0.95 nM, a koff of 0.00082 s⁻¹ and a kon of 860000 M⁻¹ s⁻¹.
